{"source": "paper PMC7193897", "proteins": {"B1": {"name": "GcL (Parageobacillus caldoxylosilyticus NBRC 107762) (protein)", "chain": "MANVIKARPKLYVMDNGRMRMDKNWMIAMHNPATIHNPNAQTEFVEFPIYTVLIDHPEGKILFDTSCNPNSMGPQGRWAESTQQMFPWTATEECYLHNRLEQLKVRPEDIRYVVASHLHLDHAGCLEMFTNATIIVHEDEFNGALQCYARNQKEGAYIWADIDAWIKNNLQWRTVKRHEDNILLAEGVKVLNFGSGHAWGMLGLHVELPETGGIILASDAIYTAESYGPPIKPPGIIYDSLGYMNTVERIRRIAQETKSQVWFGHDAEQFKKFRKSTEGYYE"}}, "key": {"purified protein [1]": {"substrate": "CCCC(=O)N[C@H]1CCOC1=O", "assay": "purified protein", "details": "pH 8.3"}, "purified protein [2]": {"substrate": "CCCCCCCCCC(=O)CC(=O)N[C@H]1CCOC1=O", "assay": "purified protein", "details": "pH 8.3"}}}
{"protein": "B1", "values": [{"measurement": "Km", "setting": "purified protein [1]", "result": "(9.8 ± 0.7) × 10^2 μM"}, {"measurement": "kcat/Km", "setting": "purified protein [1]", "result": 43000, "unit": "M⁻¹ s⁻¹"}, {"measurement": "Km", "setting": "purified protein [2]", "result": "97 ± 9", "unit": "µM"}]}
